Data set [1] deals with IC9LC11 non-small cell lung cancer patient-derived xenograft. The experiment in a line: Antitumor activity in IC9LC11 non-small cell lung cancer patient-derived xenograft model. The conditions noted are these: 5 mg/kg; control group end day, D28. It is filed as in vivo, immunodeficient female mice.
Data set [2] addresses T1, Endo180 on cells (Endo180-expressing HT1080-WT cells; Endo180-transfected HEK293-Endo180 cells) (UniProt Q9UBG0 31-1479).
T1 construct: whole, on cells; One molecule is used for the endogenous protein on HT1080-WT and the transfected protein on HEK293-Endo180; also called uPARAP
T1 sequence (looked up): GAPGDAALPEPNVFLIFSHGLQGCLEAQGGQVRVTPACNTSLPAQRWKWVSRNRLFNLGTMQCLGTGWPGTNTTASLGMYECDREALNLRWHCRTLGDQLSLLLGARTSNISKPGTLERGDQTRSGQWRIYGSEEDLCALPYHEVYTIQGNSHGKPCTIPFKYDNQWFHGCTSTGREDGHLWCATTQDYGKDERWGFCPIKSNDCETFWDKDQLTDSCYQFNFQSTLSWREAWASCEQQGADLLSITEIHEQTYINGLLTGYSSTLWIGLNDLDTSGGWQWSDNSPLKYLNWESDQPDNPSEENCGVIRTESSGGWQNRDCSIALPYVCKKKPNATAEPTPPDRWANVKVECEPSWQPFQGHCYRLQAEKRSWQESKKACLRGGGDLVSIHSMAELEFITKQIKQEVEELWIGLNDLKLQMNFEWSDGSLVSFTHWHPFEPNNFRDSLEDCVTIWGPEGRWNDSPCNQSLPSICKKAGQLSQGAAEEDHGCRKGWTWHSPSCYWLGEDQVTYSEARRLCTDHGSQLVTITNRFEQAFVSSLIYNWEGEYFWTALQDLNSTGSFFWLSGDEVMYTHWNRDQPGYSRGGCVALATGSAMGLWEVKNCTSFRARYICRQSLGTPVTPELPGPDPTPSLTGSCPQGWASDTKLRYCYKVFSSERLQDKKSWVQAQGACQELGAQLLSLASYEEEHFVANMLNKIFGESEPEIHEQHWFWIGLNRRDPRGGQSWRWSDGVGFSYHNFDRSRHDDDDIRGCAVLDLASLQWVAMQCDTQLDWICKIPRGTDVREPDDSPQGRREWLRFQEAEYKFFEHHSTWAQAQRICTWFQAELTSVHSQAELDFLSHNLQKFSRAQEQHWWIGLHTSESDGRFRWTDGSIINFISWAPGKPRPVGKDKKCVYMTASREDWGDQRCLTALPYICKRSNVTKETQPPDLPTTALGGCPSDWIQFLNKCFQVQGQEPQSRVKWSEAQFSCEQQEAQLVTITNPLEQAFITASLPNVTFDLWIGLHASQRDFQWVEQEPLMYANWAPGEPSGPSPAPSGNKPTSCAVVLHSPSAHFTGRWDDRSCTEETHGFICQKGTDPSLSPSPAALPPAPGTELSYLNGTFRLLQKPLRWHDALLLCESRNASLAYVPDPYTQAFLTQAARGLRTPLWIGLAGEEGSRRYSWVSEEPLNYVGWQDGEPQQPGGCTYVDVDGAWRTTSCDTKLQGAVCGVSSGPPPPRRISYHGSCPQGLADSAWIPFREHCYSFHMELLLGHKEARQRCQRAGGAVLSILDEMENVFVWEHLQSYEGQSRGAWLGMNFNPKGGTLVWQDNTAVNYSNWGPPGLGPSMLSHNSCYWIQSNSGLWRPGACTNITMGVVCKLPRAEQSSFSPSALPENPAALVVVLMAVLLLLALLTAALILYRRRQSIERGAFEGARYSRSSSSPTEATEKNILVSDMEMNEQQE
As to the kind of experiment: flow cytometry on HT1080-WT cells.

For data set [3], the target named is T2, human Endo180-moFc domains I-IV (aa 31-513) (human, UniProt Q9UBG0 31-513).
T2 construct: also called huEndo180 (DI-IV); huEndo180-moFc DI-IV; not shown: murine Fc domain
T2 sequence: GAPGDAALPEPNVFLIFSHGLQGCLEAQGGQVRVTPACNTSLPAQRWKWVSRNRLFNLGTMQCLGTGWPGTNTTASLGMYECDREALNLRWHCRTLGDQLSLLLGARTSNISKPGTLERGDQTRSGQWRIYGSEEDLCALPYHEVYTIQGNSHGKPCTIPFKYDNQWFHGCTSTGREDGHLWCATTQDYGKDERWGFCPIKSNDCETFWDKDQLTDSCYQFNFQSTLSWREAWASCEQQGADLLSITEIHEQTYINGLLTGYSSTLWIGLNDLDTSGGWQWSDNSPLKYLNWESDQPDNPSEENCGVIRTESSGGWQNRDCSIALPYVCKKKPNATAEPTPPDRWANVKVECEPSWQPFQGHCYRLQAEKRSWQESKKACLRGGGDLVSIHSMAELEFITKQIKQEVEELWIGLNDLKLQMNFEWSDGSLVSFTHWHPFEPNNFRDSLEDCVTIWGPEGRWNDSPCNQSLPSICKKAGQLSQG
As to the kind of experiment: ELISA, immobilized human Endo180-mouse Fc DI-IV.

Data set [4] has as its target T3, human Endo180-moFc domains I-III (aa 31-370) (human, UniProt Q9UBG0 31-370).
T3 construct: also called huEndo180 (DI-III); huEndo180-moFc DI-III; not shown: murine Fc domain
T3 sequence: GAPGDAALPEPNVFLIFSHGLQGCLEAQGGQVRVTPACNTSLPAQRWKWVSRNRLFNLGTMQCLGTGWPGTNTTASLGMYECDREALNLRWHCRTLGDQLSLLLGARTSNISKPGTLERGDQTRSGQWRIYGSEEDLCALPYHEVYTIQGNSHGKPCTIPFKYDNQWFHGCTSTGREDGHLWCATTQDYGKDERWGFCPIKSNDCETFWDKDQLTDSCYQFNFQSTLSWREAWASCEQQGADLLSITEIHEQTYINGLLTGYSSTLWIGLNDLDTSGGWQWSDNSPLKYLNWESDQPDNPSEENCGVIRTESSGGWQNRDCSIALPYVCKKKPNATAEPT
As to the kind of experiment: ELISA, immobilized human Endo180-mouse Fc DI-III.

For data set [5], the target named is T1, Endo180 on cells (Endo180-expressing …). As to the kind of experiment: flow cytometry on HEK293-Endo180 cells.

`CC(=O)O[C@@]12CO[C@@H]1C[C@H](O)[C@@]1(C)C(=O)[C@H](O)C3=C(C)[C@@H](OC(=O)[C@H](O)[C@@H](NC(=O)OC(C)(C)C)c4ccccc4)C[C@@](O)([C@@H](OC(=O)c4ccccc4)[C@H]21)C3(C)C` [Docetaxel] yielded an inhibition of tumour growth (TGI) in data set [1] of 73%. Further, the “tolerability based on body weight data and clinical observations” value (mouse, in vivo) is given as “well tolerated, except in one mouse”. The molecule also gave a relative weight loss (one mouse, at the group end day) of 16.0%.

B1: IgG G7V Δab (antibody, V domains shown)
VH: EVQLVESGGGLVKPGGSLRLSCAASGFTFSSYSMNWVRQAPGKGLEWVANIKPDGSERHSVDSVKGRFTISRDNSKNSLYLQMNSLRAEDTAVYYCARPGAGRLDYWGQGTLVTVSS
VL: SSELTQDPAVSVALGQTVRITCQGDSLRSYYASWYQQKPGQAPVLVVYGKNNRPSGIPDRFSGSSSGNTASLTITGAQAEDEADYYCNSRDSSGNPWAFGGGTKVTVL
notes: also called IgG G7V with a silent Fc
For the molecule B1, the half-maximal effective concentration (EC50) was 3.7 nM in data set [2], 0.53 nM in data set [3] and 0.45 nM in data set [4].

B2: OMTX707 antibody-drug conjugate (antibody, human IgG1, lambda, V domains shown)
VH: EVQLVESGGGLVKPGGSLRLSCAASGFTFSSYSMNWVRQAPGKGLEWVANIKPDGSERHSVDSVKGRFTISRDNSKNSLYLQMNSLRAEDTAVYYCARPGAGRLDYWGQGTLVTVSS
VL: SSELTQDPAVSVALGQTVRITCQGDSLRSYYASWYQQKPGQAPVLVVYGKNNRPSGIPDRFSGSSSGNTASLTITGAQAEDEADYYCNSRDSSGNPWAFGGGTKVTVLG
modifications: drug-linker TAM558 on cysteine residues, non-site directed (sites not given); drug-linker TAM558 (cytolysin-linker maleimide caproyl vcPABA) on cysteine residues, non-site directed, DAR 3.79
notes: antibody-drug conjugate; also called OMTX707 ADC
Molecule B2 returned a half-maximal effective concentration (EC50) in data set [5] of 1.3 nM.

B3: OMTX807 ADC (antibody-drug conjugate) (antibody, human IgG1, lambda, V domains shown)
VH: EVQLVESGGGLVKPGGSLRLSCAASGFTFSSYSMNWVRQAPGKGLEWVANIKPDGSERHSVDSVKGRFTISRDNSKNSLYLQMNSLRAEDTAVYYCARPGAGRLDYWGQGTLVTVSS
VL: SSELTQDPAVSVALGQTVRITCQGDSLRSYYASWYQQKPGQAPVLVVYGKNNRPSGIPDRFSGSSSGNTASLTITGAQAEDEADYYCNSRDSSGNPWAFGGGTKVTVLG
modifications: drug-linker GGFG-DXd on cysteine residues, non-specific site (sites not given); drug-linker GGFG-DXd on cysteine residues, non-specific site, DAR 8.05
notes: antibody-drug conjugate
With B3, the EC50 in data set [5] amounted to 0.7 nM.
